The values below come from IntAct's records for PubMed 21131967.

Sequences and labels used below:
B1: Transcription factor p65 (Mus musculus), Q04207 (parent)
chain: MDDLFPLIFPSEPAQASGPYVEIIEQPKQRGMRFRYKCEGRSAGSIPGERSTDTTKTHPTIKINGYTGPGTVRISLVTKDPPHRPHPHELVGKDCRDGYYEADLCPDRSIHSFQNLGIQCVKKRDLEQAISQRIQTNNNPFHVPIEEQRGDYDLNAVRLCFQVTVRDPAGRPLLLTPVLSHPIFDNRAPNTAELKICRVNRNSGSCLGGDEIFLLCDKVQKEDIEVYFTGPGWEARGSFSQADVHRQVAIVFRTPPYADPSLQAPVRVSMQLRRPSDRELSEPMEFQYLPDTDDRHRIEEKRKRTYETFKSIMKKSPFNGPTEPRPPTRRIAVPTRNSTSVPKPAPQPYTFPASLSTINFDEFSPMLLPSGQISNQALALAPSSAPVLAQTMVPSSAMVPLAQPPAPAPVLTPGPPQSLSAPVPKSTQAGEGTLSEALLHLQFDADEDLGALLGNSTDPGVFTDLASVDNSEFQQLLNQGVSMSHSTAEPMLMEYPEAITRLVTGSQRPPDPAPTPLGTSGLPNGLSGDEDFSSIADMDFSALLSQISS
partner: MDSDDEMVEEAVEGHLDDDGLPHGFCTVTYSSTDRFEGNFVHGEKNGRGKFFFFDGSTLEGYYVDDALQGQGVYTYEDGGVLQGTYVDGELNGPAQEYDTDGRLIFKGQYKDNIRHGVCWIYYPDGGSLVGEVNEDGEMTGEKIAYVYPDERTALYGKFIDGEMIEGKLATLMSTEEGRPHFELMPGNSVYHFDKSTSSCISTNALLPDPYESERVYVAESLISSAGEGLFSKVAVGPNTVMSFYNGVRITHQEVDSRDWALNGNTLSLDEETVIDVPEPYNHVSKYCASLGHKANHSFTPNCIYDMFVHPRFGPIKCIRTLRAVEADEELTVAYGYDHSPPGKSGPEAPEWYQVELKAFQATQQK
B2: N-lysine methyltransferase SETD6 (Homo sapiens), Q8TBK2 (parent)
chain: MATQAKRPRVAGPVDGGDLDPVACFLSWCRRVGLELSPKVSERAGGRRTRGGARAALTSPPAQVAVSRQGTVAGYGMVARESVQAGELLFVVPRAALLSQHTCSIGGLLERERVALQSQSGWVPLLLALLHELQAPASRWRPYFALWPELGRLEHPMFWPEEERRCLLQGTGVPEAVEKDLANIRSEYQSIVLPFMEAHPDLFSLRVRSLELYHQLVALVMAYSFQEPLEEEEDEKEPNSPVMVPAADILNHLANHNANLEYSANCLRMVATQPIPKGHEIFNTYGQMANWQLIHMYGFVEPYPDNTDDTADIQMVTVREAALQGTKTEAERHLVYERWDFLCKLEMVGEEGAFVIGREEVLTEEELTTTLKVLCMPAEEFRELKDQDGGGDDKREEGSLTITNIPKLKASWRQLLQNSVLLTLQTYATDLKTDQGLLSNKEVYAKLSWREQQALQVRYGQKMILHQLLELTS
B3: Transcription factor p65 (Mus musculus), Q04207 (parent)
chain: B1 chain
partner: B2 chain

The variants in the first assay derive from B1. The conditions noted are these: with setd7_human SETD7, Q8WTS6.
Turning to K310R, the “effect of a mutation on the interaction” value is “disrupting interaction”.

Variants of B2 are the subject of the next assay. The conditions noted are these: with tf65_mouse Rela, Q04207.
Regarding Y285A, the “effect of a mutation on the interaction” value is recorded as “disrupting interaction”.

In another assay the parent is B3. The conditions noted are these: with setd6_human SETD6, Q8TBK2.
As for K310R, the “effect of a mutation on the interaction” value was “disrupting interaction”.
